From article PMC3964903

Target: calcium/calmodulin-dependent protein kinase II (CaMKII) (mouse (endogenous in hippocampal slices)) (UniProt P11798)
Sequence of UniProt P11798 (P11798 whole entry): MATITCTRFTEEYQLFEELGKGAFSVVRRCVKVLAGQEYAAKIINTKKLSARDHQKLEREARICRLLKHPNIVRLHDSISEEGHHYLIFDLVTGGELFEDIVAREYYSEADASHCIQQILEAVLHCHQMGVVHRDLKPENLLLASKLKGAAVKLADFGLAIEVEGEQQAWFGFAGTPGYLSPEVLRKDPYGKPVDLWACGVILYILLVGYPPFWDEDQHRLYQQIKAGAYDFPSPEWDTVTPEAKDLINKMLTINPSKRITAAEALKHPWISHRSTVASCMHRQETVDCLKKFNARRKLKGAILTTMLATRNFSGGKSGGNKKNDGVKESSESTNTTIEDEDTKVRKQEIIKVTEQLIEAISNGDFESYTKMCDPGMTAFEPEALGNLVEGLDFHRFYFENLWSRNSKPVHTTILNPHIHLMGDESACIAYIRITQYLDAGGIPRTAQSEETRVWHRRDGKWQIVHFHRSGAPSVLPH

## NMDA receptor (NMDAR) (from UniProt P35438 19-938; Q01097 27-1482) (complex)
  CaMKII relative activity (Cyclex CaMKII assay kit) after 10 min OGD with Tat-GluN2B, compared with control (relative to control): 0.97
  amplitude of NMDAR-mediated i-LTP (NMDA fEPSPs) in hippocampal slices exposed to OGD for 10 min with Tat-GluN2B, compared with OGD alone (relative to OGD): 0.73
